Measurements reported in FireProtDB (doi:10.1021/bi00444a012).

Details: Bacillus amyloliquefaciens; pH 8; Thermal; DSC; Tris-HCl 5.0 mM; KCl 50 mM; reversible: yes; whole UniProt chain shown

B1: Subtilisin BPN' wild type, P00782 (protein)
chain: MRGKKVWISLLFALALIFTMAFGSTSSAQAAGKSNGEKKYIVGFKQTMSTMSAAKKKDVISEKGGKVQKQFKYVDAASATLNEKAVKELKKDPSVAYVEEDHVAHAYAQSVPYGVSQIKAPALHSQGYTGSNVKVAVIDSGIDSSHPDLKVAGGASMVPSETNPFQDNNSHGTHVAGTVAALNNSIGVLGVAPSASLYAVKVLGADGSGQYSWIINGIEWAIANNMDVINMSLGGPSGSAALKAAVDKAVASGVVVVAAAGNEGTSGSSSTVGYPGKYPSVIAVGAVDSSNQRASFSSVGPELDVMAPGVSIQSTLPGNKYGAYNGTSMASPHVAGAAALILSKHPNWTNTQVRSSLENTTTKLGDSFYYGKGLINVQAAAQ
  Tm: 58.5 °C
  heat capacity change of unfolding: 4.8 kcal/mol/K
  unfolding enthalpy (calorimetric): 88.3 kcal/mol
  unfolding enthalpy (van 't Hoff): 97 kcal/mol
